The record followed here is US20250092147A1 (PEPMAB B V, published 2025).

Substitutions are numbered along the chain they refer to. Values joined by “and” are separate entries in the source; they are usually repeats but may differ in a detail not shown here. Identical values can stand only once.

Test [1] addresses T1, human CCR7 (human, UniProt P32248 25-378, sulfated tyrosine residues in position Y32 and Y41 (as the filing describes the N-terminal extracellular domain)).
T1 sequence: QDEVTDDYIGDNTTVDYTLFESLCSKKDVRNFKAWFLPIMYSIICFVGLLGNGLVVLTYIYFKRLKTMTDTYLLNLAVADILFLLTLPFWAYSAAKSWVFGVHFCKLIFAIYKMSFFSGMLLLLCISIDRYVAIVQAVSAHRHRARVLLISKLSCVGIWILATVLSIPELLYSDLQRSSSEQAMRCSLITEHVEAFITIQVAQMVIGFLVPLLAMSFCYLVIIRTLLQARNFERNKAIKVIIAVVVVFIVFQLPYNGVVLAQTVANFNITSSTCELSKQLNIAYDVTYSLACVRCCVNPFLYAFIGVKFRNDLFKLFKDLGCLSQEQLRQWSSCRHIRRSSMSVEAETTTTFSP
The experiment in a line: cell-based or functional assay.

Test [2] has as its target T1, human CCR7. Kind of test: FACS (flow cytometry) on CLL and TPLL cells. A general note: A flow cytometer gives signals particle by particle.
Method: Binding of antibodies to membrane expressed CCR7 was determined by Fluorescence-activated cell sorting (FACS) by flow cytometry on three different chronic lymphocytic leukemia (CLL) samples and on three different T-cell Prolymphocytic leukaemia (TPLL) samples (data not shown). Appropriate controls (human isotype controls) were included to easily calculate the percentage of positive cells and/or the relative median fluorescence intensity (RMFI), obtained from the ratio MFI (sample)/MFI (control).
The target in a further test is T2, sulfated antigen SYM1899 (human, N-terminal pyroGlu; Z denotes sulfated Tyrosine (two Z in (pyroGlu)DEVTDDZIGDNTTVDZTLFESLCSKKDVRNK)).
T2 construct: also called immunogen SYM1899; synthetic antigen SYM1899
T2 peptide: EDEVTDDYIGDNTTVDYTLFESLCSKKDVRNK
Kind of test: ELISA, SYM1899 coated on the plate, 4 parameter logistics curve fit. As to the method: SEQ ID NO: 76). 100 ng/well SYM1899 was immobilized onto 96 well Maxisorp plates in coating buffer. Coating buffer was removed and 200 μl/well of block solution (3% w/v semi skim milk powder, PBS) was added and agitated 2 hours room temperature. Plate was washed six times with PBS-T (0.001% v/v Tween 20). […] 100 μl per well in triplicate of each antibody dilution was added to the plate in addition to a negative control of PBS and incubated 2 hours at room temperature with agitation. Plate was washed six times with PBS-T. 100 μl/well goat anti human HRP (Fc specific) (1:60,000 in PBS) was added and plates incubated for one hour agitated at room temperature. Plate was washed six times with PBS-T and once in PBS. 100 μl/well of TMB substrate solution was added and incubated at 37° C. for 10 minutes. 50 μl 1M HCl was added per well and the plate immediately read at 450 nm on a Biolise plate reader.
In general terms: An ELISA detects its analyte on a solid surface through an enzyme-linked reagent.

B1: humanized anti-CCR7 mAb 650 variant HC1 LC1 (antibody, V domains shown)
VH: EVQLLESGGGFVKPGGSLKLSCVVSGLTFRDFAMSWVRQTPEKRLVWVATISSGGFYTYYPDSVKGRFTISRDNVRNILYLQMSSLRSEDTAVYYCVRRAYRYDGTGDYSALDYWGTGTTVTVSS
VL: DIQMTQSPSSLSASVGDRVTITCRASQDIGPSLNWYQQKPGKAPKRLIYATSNLDSGVPSRFSGSGSGTDFTLTISSLQPEDFATYYCLQFASSPLTFGQGTKVEIK
As to B1, in the test with human CCR7 [1], the “IC50 of inhibition of CCL19 induced CCR7 receptor internalization (PathHunter active internalization assay)” value was 0.415 µg/ml and 2.8 nM; the “IC50 of inhibition of CCL19 induced cAMP signalling (cAMP Secondary Messenger Pathway assay)” value is 1.61 µg/ml and 10.7 nM; the “IC50 of inhibition of CCL19 induced β-arrestin recruitment (PathHunter)” value is 9.56 µg/ml and 63.7 nM.

B2: control antibody 11-x (antibody, human IgG1, V domains shown)
VH: EVQLLESGGGFVKPGGSLKLSCVVSGLTFRDFAMSWVRQTPEKRLVWVATISSGGFYTYYPDSVKGRFTISRDNVRNILYLQMSSLRSEDTAVYYCARATTVVGTDFDYWGTGTTVTVSS
VL: B1 VL
For B2, the binding result with human CCR7 [2] was “no binding”.

B3: humanized anti-CCR7 mAb 650 variant HC3 LC3 (antibody, V domains shown)
VH: EVQLVESGGGLVQPGGSLRLSCAVSGLTFRDFAMSWVRQAPGKGLEWVSTISSGGFYTYYPDSVKGRFTISRDNSKNTLYLQMNSLRAEDTASYYCVRRAYRYDGTGDYSALDYWGQGTLVTVSS
VL: B1 VL with Y36L, R46S, R61K, T72S, K103R, V104L
notes: Human Fc; See the note on VK3 under HC1 LC3
Broadly, the EC50 is the concentration needed to bring the measured effect to its halfway point. A higher EC50 goes with a need for much substance. The molecule B3 had an EC50 with sulfated antigen SYM1899 of over 100 nM.

B4: humanized anti-CCR7 mAb 650 variant HC1 LC3 (antibody, V domains shown)
VH: B1 VH
VL: B1 VL with Y36L, R46S, R61K, T72S, K103R, V104L
notes: Human Fc
In turn, B4 had an EC50 in the test with sulfated antigen SYM1899 of over 100 nM.

B5: humanized anti-CCR7 mAb 650 variant HC2 LC3 (antibody, V domains shown)
VH: B3 VH with Q13K, V24A, S25P, S75A, K76A, T78S, S93V
VL: B1 VL with Y36L, R46S, R61K, T72S, K103R, V104L
notes: as for B3
B5 returned an EC50 with sulfated antigen SYM1899 of over 100 nM.
